Columns and labels:
[1] = target: HLA-A2 on T2 cells without added peptide (human); assay: flow cytometry, T2 cells without peptide, antibody 10 µg/mL
[2] = target: MED13L/HLA complex on MED13L-pulsed T2 cells (human); assay: flow cytometry, T2 cells pulsed with 25 µM MED13L peptide, antibody 10 µg/mL
[3] = target: PIGQ/HLA complex on PIGQ-pulsed T2 cells (human); assay: flow cytometry, T2 cells pulsed with 25 µM PIGQ peptide, antibody 10 µg/mL
[4] = target: WT1RMF/HLA-A2 complex on cells (human); assay: flow cytometry, T2 cells pulsed with 25 µM WT1RMF, antibody 10 µg/mL

Percentage of Positive Cells (%) [1]: 5.43%
Percentage of Positive Cells (%) [2]: 5.38%
Percentage of Positive Cells (%) [3]: 4.78%
Percentage of Positive Cells (%) [4]: 4.93%
Substance: ISO (antibody)

Reference: patent publication US20260152571A1
